Assay results as given in patent US20210261685A1 (Alector, published 2021).

T1: Recombinant human MerTK human Fc Chimera protein (R&D systems, Cat #391-MR-100) (human, UniProt Q12866 26-499, limits assumed)
T1 construct: Bought; also called recombinant human MerTK protein; MerTK-Fc
T1 sequence: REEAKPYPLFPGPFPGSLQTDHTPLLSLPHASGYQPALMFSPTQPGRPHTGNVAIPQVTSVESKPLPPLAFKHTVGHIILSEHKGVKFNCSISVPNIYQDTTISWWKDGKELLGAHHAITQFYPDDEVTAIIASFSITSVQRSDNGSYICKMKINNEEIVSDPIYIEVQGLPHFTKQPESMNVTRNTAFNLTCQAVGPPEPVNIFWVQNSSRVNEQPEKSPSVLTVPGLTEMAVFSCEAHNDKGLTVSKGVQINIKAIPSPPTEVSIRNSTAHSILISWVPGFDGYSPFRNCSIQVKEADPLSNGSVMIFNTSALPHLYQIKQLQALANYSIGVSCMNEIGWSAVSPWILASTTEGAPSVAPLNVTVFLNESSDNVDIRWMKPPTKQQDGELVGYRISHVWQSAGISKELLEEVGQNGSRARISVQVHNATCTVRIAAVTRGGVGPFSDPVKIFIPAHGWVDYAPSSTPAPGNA

T2: human MerTK endogenously expressed on cells (SK-MEL-5 cells; human macrophages) (human, UniProt Q12866 21-999)
T2 construct: also called MerTK on SK-MEL-5
T2 sequence: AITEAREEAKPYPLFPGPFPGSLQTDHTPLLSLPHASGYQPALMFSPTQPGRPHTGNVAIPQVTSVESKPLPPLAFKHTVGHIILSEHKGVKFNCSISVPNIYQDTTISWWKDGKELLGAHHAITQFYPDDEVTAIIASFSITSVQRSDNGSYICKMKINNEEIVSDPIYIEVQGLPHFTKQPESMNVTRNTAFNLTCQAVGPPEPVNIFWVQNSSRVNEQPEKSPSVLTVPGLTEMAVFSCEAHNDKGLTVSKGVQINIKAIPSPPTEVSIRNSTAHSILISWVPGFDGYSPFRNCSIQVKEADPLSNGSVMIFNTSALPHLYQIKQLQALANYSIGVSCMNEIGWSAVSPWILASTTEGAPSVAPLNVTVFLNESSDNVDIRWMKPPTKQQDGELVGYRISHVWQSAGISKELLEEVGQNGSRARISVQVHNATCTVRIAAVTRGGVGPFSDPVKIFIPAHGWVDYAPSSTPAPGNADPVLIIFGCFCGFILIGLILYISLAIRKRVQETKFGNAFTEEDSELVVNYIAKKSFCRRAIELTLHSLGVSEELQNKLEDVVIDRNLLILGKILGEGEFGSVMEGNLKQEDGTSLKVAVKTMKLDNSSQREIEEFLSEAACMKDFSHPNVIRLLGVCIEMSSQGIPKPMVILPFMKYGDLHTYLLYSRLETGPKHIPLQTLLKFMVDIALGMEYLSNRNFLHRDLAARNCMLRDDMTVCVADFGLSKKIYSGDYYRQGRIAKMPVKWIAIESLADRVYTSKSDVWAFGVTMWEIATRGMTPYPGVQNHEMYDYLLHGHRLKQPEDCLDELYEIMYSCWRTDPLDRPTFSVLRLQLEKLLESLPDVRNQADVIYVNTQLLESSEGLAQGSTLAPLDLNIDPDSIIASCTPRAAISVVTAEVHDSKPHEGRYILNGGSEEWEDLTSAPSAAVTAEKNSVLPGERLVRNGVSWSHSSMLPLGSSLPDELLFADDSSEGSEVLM


Key:
[1] = biological target: T1, Recombinant human MerTK human Fc …; assay: competition ELISA, His-Gas6 on captured MerTK-Fc
Procedure: Rabbit anti-human IgG polyclonal antibody (Jackson ImmunoResearch, Cat #309-005-008) was captured to a high-protein binding plate at 2 μg/ml 4° C. overnight. After washing with 0.05% Tween20 in PBS three times, 5% BSA in PBS was added for 1 hour. Recombinant human MerTK human Fc Chimera protein (R&D systems, Cat #391-MR-100) was added at 2 μg/ml for 1 hour and the plates were then washed. Anti-MerTK antibodies were titrated to final concentration range of between 66.6 nM to 4 pM and then 40 μl of serially diluted antibody and 40 μl of His tag-conjugated recombinant Gas6 protein (R&D systems, Cat #885-GSB-050) at 3 μg/ml or His tag-conjugated recombinant ProS protein (R&D systems, Cat #9489-PS-100) at 20 μg/ml. After a further incubation for 1 hour, plates were washed and incubated for 1 hour with HRP-conjugated anti-6×His tag antibody (Abcam, Cat #ab1187). Plates were then washed and an HRP substrate (TMB) was used to develop the plates. After sufficient color change was observed, the reaction was stopped by adding 50 μl 2N H₂SO₄ and the OD was measured using a spectrophotometer (BioTek).
From these experiments, IC50 values [nM] were determined using OD450 values obtained from the dose-response curves analyzed with Prism software. Table 14 and Table 15 show IC50 values determined for anti-MerTK antibody blocking of Gas6 ligand binding and ProS ligand binding to MerTK. […] Dashes indicate lack of significant blocking; “n.a.” indicates data not available.

[2] = biological target: T2, human MerTK endogenously expressed on …; assay: flow cytometry on SK-MEL-5 cells, Prism fit
Procedure: To determine whether recombinant anti-human MerTK antibodies of the present disclosure bind to human MerTK endogenously expressed on SK-MEL-5 cells and to CHO cells overexpressing mouse MerTK (CHO-muMerTK OE cells), the following experiments were performed. SK-MEL-5 cells and CHO-muMerTK OE cells were plated at 40,000 cells/well. Anti-MerTK antibodies were titrated to a final concentration range of between 66.6 nM to 4 pM and then added to the cells. After 30 min on ice, cells were washed and then stained with APC-conjugated mouse anti-human Kappa antibody (Southern Biotech Cat #9230-11, Birmingham, Ala.) and a viability die (Life Technologies) in the presence of Fc block solution on ice for 30 minutes, and then washed twice with cold FACS buffer (2% FBS in PBS). Cells were fixed with 4% paraformaldehyde in PBS. Stained cells were acquired on a BD FACS Canto II cytometer and the mean fluorescence intensity (MFI) was calculated with FlowJo software and K value was calculated with Prism software. […] A lower Kd value reflects higher binding of antibody to cells.

[3] = biological target: T2, human MerTK endogenously expressed on …; assay: cell-based or functional assay

Row | Binder | IC50 [1] [nM] | Kd [2] [nM] | Gas6-mediated pAKT activity, average IC50, human M2c macrophages [3] [nM]
1 | MTK-31 (antibody, human IgG1, V domains shown) VH: QIQLVQSGPELKKSGETVKISCKASGYTFTSYGMSWVKQAPGKGLKWMGWINTYSGVPTYADDFKGRFAFSLETSASTAYLQINNLKNEDTATYFCASLSYDGSLYHAMDYWGQGTSVTVSS VL: DVSMTQTPLSLPVSLGDQASISSRSSQTIVHSNGNTYLEWYLQKPGQSPKLLIYKVSNRFSGVPDRFSGSGSGTDFTLKISRVEAEDLGVYYCFQGSHVPWTFGGGTKLEIK | 1.29 |  | 
2 | MTK-05 (antibody, human IgG1, V domains shown) VH: QVQLQQSGAELVQPGTSVRLSCKTSGYTFTSYWIQWVKQRPGQGLGWIGEIFPGTGTTYYNEKFKGKATLTIDTSSSTAYMQLSSLTSEDSAVYFCARDGAYFDVWGAGTTVTVSS VL: DIQMTQSPASLSASVGETVTFTCRASENIFSYLAWYQQKQGKSPQLLVYNAKTLAEGVPSRFSGSGSGTHFSLKINSLQPEDFGSYYCLHHYGTPLTFGAGTKLELK |  |  | 0.246
3 | MTK-01 (antibody, human IgG1, V domains shown) VH: QIQLVQSGPELKKPGETVKISCKASGYTFTNYGMNWVKQAPGKGLKCMGWINTYTGEPTYADDFKGRFAFSLETSATTAYLQINNLKNEDTATYFCARRDRYTWFAYWGQGTLVTVSA VL: QIVLSQSPAILSASPGEKVTMTCRASSSVSYMHWYQQKPGSSPKPWIYATSNLASGVPARFSGSGSGTSYSLTISRVEAEDAATYYCQQWSSNPPTFGGGTKLEIK |  | 0.049 | 1.28
4 | MTK-36 (antibody, human IgG1, V domains shown) VH: QVTLKESGPGILQPSQTLSLTCSFSGFSLSTFGMGVGWIRQPSGKGLEWLAHIWWYDDKYYEPALKSRLTISKDSSKNQVFLKIANVDTADTATYYCARIYYGTSYRYFDVWGTGTTVTVSS VL: QIVLSQSPAILSAFPGEKVTMTCRATSSVRYMHWYQQKPGSSPKPWIYATYNLTSGVPARFSGSGSGTSYSLTISRVEAEDAATYYCHQWSSNPYTFGGGTKLEIK | 0.29 | 1.42 | 
5 | MTK-35 (antibody, human IgG1, V domains shown) VH: QVLLQQSGPELVKPGASVQLSCKASDYTFTSYDIHWVKQRPGQGLEWIGWIYPRDGYTKYNEIFKGKATLTVDTSSTTAYMELHSLTSEDSAVYFCARAYYTNWYYFDYWGQGTTLTVSS VL: EIVLTQSPTTMAASPGEKITITCRASSSISSHYLHWYQQKPGFSPKLLIYRTSNLASGVPARFSGSGSGTSYSLTIGTMEAEDVATYYCQQGSTIPLTFGAGTKLVLK | 0.31 | 1.29 | 
6 | MTK-21 (antibody, human IgG1, V domains shown) VH: QIQLVQSGPELKKPGETVKISCKASGYTFTNFGMTWVRQAPGMDLKWMGWINTYTGEPKYADDFKGRFALSLETSASTAYLQITNFKNEDTATYFCARGGGRLGLRPLDYWGQGTTLTVSS VL: DIQMTQTTSSLSASLGDRVTISCRASQDINNYLNWYQQKPDGTVKLLIYYTSSLHSGVPSRFSGSGSGTDYSLTITNLEQEDIATYFCQQGNTLPWTFGGGTRLEIK | 5.98 | 23.4 | 
7 | MTK-24 (antibody, human IgG1, V domains shown) VH: QVQLQQPGAELVKPGASVKLSCKASGYTFTSYWMHWVKQRPGQGLEWIGMIHPNINTNYNEKFKSKATLTVDISSSTAYMQLSSLTSEDSAVYYCAKRSPYSNYDWYFDVWGTGTTVTVSS VL: DIQMTQSPASLSVSVGETVTITCRASENIYSNLAWYQQKQGKSPQLLVYAATNLADGVPSRFSGSGSGTQYSLKINSLQSEDFGSYYCQHFWGTPLTFGAGTKLELK | 0.74 | 0.59 | 
8 | MTK-27 (antibody, human IgG1, V domains shown) VH: EVQLQQSGTELVRPGASVKLSCTASGFNIKDDYMHWVQQRPEQGLEWIGWIDPENGNTEYASKFQGKATITADASSNTAYLQLSSLTSEDTAVYYCSTLFSNYFDYWGQGTTLTVSS VL: DIVMTQSQKFMSTSVGDRVSITCKASQNVRTSVAWYQQKPGQSPKALIYLASNRHTGVPDRFTGSGSGTDFTLTISNVRSEDLADYFCLQHWNYPYTFGGGTKLEIK | 1.42 | 2.55 | 

Results, then the binder that gave them:

Row | IC50 [1] [nM] | Kd [2] [nM] | Gas6-mediated pAKT activity, average IC50, human M2c macrophages [3] [nM] | Binder
9 | 1.26 | 0.47 |  | MTK-30 (antibody, human IgG1, V domains shown) VH: QVQLQQPGTELVRPGASVKLSCKASGYTFTSYWMHWVKQRPGQGLEWIGNLNPNNGGTYYNEKFKSKATLTVDKSSSTAYMQLSSLTSEDSAVYYCARQILLYFDYWGQGTTLTVSS VL: DVLMTQTPLSLPVSLGDQASISCRSSQSIVHSNGDTYLEWYLQKPGQSPKLLIYKVSNRFSGVPDRFSGSGSGTDFTLKISRVEAEDLGVYYCFQGSHVPWTFGGGTKLEIK
10 | 32.4 | 0.076 |  | MTK-10 (antibody, human IgG1, V domains shown) VH: QVTLKESGPGILQPSQTLSLTCSFSGFSLTTSGMGVGWIRQPSGKGLEWLAHIWSDDDKRSNPALKSRLTISQDSSTNQVFLKIASVDTADSATYYCSHLTPVREFAYWGPGTLVTVSE VL: DIQMTQTTSSLSASLGDRVTISCSASQGISNYLNWFQQKPDGTVKLLIYYTSRLHSGVPSRFSGSGSGTDFSLTISNLEPEDIATYYCQQYTKLPYTFGGGTKLEIK
11 | 18.9 | 0.68 |  | MTK-13 (antibody, human IgG1, V domains shown) VH: DVQLQESGPGLVKPSQSLSLTCSVTGYSITSGYYWNWIRQFPGNKLEWMGNIDYDGSNKYNPSLKNRISITRDTSKNHFFLKLNSVTPEDTATYFCARDGGNYRSFAYWGQGTLVTVSA VL: QIVLTQSPPIMSASPGEKVTITCSASSSVSYMYWFQQKPGTSPKLWIYSTFNLASGVPARFSGSGSGTSYSLTISRMEAEDVATYYCQQRSSYPFTFGSGTKLEIK
12 | 2.93 | 1.38 |  | MTK-26 (antibody, human IgG1, V domains shown) VH: AVQFQESGPGLVKLSQSLSLTCSVTGYSITSGYYWDWIRQFPGNKLEWMGYISYDGSNNYNPSLKNRISITRDTSKNQFFLKLNSVTTEDTATYYCAREGGYYRSMDYWGQGTSVTVSS VL: QIVLTQSPAIMSASPGEKVTIACSASSSVSFMHWFQQKPGTSPRLWIYSTSNLASGVPARFSGSGSGTSYSLTISRMEAEDAATYYCQQRSSYPFTFGSGTKLEIK
